# Results: the NTF2 design screens of Basanta et al. (2020)
# Test: protease stability score; higher = more stable; yeast display proteolysis, trypsin and chymotrypsin;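 note: relative to predicted unfolded state with 0 unfolded-like and 1 meaning tenfold more protease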
row,Sequence,protease stability score
1,DYHEEIMRKVHEFFLAMVTTGDEEMIEKLFDPHVRIDINGRDHHGRDVAVKIWEELWREIRFKHVHLHDMKSFNGVLHLHVREKVDVNGRDLIIETHFVIRKFDGQWHLHSLKIN,1.38
2,SEIERESKIFSKIEKHVWETGDEKILSEMADPHARIEIGDKEHHGREEFEKVAHEIVEFFPNMRFRVEHMDVQGNKVDLDTRLHFENHSHRYQVISLKFNGRWLIKSVKIE,1.08
3,SEEEEQVERAIKLTEELIDTGNWKEISKLADPNARLNVNGREFHGREMVSENIKRFFEELGVDHIEVKHIRIQGNKVEVDTELRVGDKYHDLHLLFLKVNGQWLLKEVTVR,1.22
4,DEEEEALRLAFELIYTVLRTGDEEMWRRMADPDTKIDIGDKHFHGREHVEYVLRELHKRIDHIDHSHIDHVHVQGDKVHMDTTIVGTYDGQRTNLKTSFIVVKINGKWVMTSVRFR,1.38
5,DEDHHLVQLASEIVSKLIHTGDEEMIYHLADPHTRNDVNGKVFHGRDEMLKYLHDRWRHFGVERINHIVHHIRVVDGRADIDGRLHVGDKDFTVHIHMEKVNGRWVIKEIRIK,0.68
6,NEDHDVLNDLMTDHVHAVLTGDFRTLIHNIDPHTRVDINGVHFHGREEAVHLFEDLANRVPGVKLDVEEWRTYGDKLRSNVRWHFDGRTIDIHLVFLKINGKWLLESVKIN,1.9
7,DEEMQLAEEMSRKFLHNWHTGDWRIMSHLIDPDVKIIIVVGDKRIELHGRENFVKEIIRWLHHLRETDRRVDHLRIQGDKAHVRVTVHVRYGDKTMDLDEDIRILVVNGKIHSIEIIQV,1.02
8,DEEKKANHFNKEFDRNVQRNNETELRKMVDPNARVNVGEQNYSGRNKMVKIITDWLRKYDKFTIDVRRIDVHGNRIFIDFEMVVVSNGQRRTTEIRVVVEEHNGRLHIRVWEIT,1.03
9,DEDEKVSHHAYKLIEHLFLTGDESTWMRMADPRTRIIIGDFHLIGREEWARVLKEILDRLGFKHIQFTDREVRVYGEKVHVELHLLLIQGDKEIRVELRYISDKIDGQWRYHSVTHHIK,0.998
10,DEEKRHHDEWRQFFLDSIKTGNWFELLKMIDPNTKILINGKEFHGRDAMHHFLTELRRRVDHLERFDIHHIDIQGNKAFDDTRLEGRINGVETHIDLLLISTKVNGVWYLKSVELR,2.13
11,SEEERILEEILRRLLRLLATGDWEDLHKLFDPTVRIVFNGQLLHGWHEFIRTMHQLWVDRIRVERVRFQGDFQHYETRNDITINGVRIETESRVHVKIVDGRIKYFEFELT,2.53
12,EEEEKEADEEVRIMIKSLYTGDEDTVHEMADPNALVKVGDKTIHGMHLFLHTWIRRMEKHGIRVEVRLDDLEIQGEKIHIHLTLIYRFNGKDYPIEFEIHVNKINGQWRVSEIIEI,1.25
13,SDWDKITKEMAELILTAEETGDFKTLWRLMDPNVKLNIGDKTHHGREEYLKWMHEHLKKVPNLTLKLRDVHVQGDKVHLRVEVEIGDKTIDSEIHLEIINGRIEHLRIIDL,0.957
14,SEERDHARRALNKMWKAIETGDEDTFEKLMDPDVRIEIGDKEIHGRELYVKIWQEMRFHIRRTRITDSKTFNGRVDIEFEEDFEIIVGDKIERYDYRVTFHSLKVNGRWEHSSMRLH,0.202
15,DEERKIVLESVRLWLDEWETGDESALEKLMDPNVRVIIGDKTVHGREQMIKFLREWLTRYDHLEIKLRDIKVIGDKIHVESEFRYHIGDKELSHRTNVVLKIVDGKLKSVRVDFE,1.93
16,SEIEKDAKDALKWFVDTTRTGDEDLWLRLLDPHVRVIIGDKEYHGREESEKLIRHLSDLFGVDKVEVILNLERIHIQGNKIDVKGKLEVRQGNYTDDREIEMVMIKVNGRWFIKYEVIK,1.18
17,DDKDEHSYRVAEDVVEAWLTGDWRWLMDMFDPHVRMDIDIDGVDIHLHGRHELARYILEEHQKYKNITVHIEHIRVQGDFIEINTSVRIDGQRHDRRLIIRIINGKIEEHQIHVR,1.01
18,SEDAKLTEELFREWLTIMLTGDWEQSLRRIDPHARLIIDGRHFHGREEFSKVVKELRFKDMIDRRIHVDENEVFVDVELRGVINGREVTIKTHILIVVIDGVIHSIEIRNR,1.29
19,SEDEKFWEDISKIVLDLLRTGDWELSERYADPNVKVHLVIDGQELDLHGREHVVNLVRKLGADHVETEDHKFHYQGNKIRINIHGHLNINGKVQHVEFTEIWVKVDGRWYSQHHEIVFR,1.55
20,DEREELDEHWFRLQFQAMETGDENLVRDNLDPHVKVVVGDKEFVGRHYAIRLFHDLGVDHLVKKSEDRQGEKVIVHGRLDIGDKRHEIVLIIRKIDGKWVVHEIIIR,1.35
21,DEERTLVEELIQIFVEALETGDFETLSKMFDPHALFLQGDKRFVGRKDIEKWIHDLVRRLGVNHIEIDKITVQGEKAHVDTRVHIGDKTSTIHILIVKVNGRWFVEEIRYH,1.17
22,DEEEKLEEDLARFWVTLLKTGDEEVIRHLADPHVREDWDGVHIHGREHVAKYLSQIKNVTWEIKEVRIYNGRTEIDARHHVNGRDEHVRIHIEVFNGKVRRLRFEKR,1.5
23,DELTELAEKAKELFVRIEKTGDEKTWSEYADPDVRIHVNGVDLHGREESLKWMHDLRERIKNMRVEFKDFKIEIIGNKVIIFIDGRLRYDGRELELESVYYVSKFNGRWRVESEELRIR,1.37
24,DEEEKSLRFAIKMMEELIQTGDEDLFERLLDPDTRLRVGDKTFHGREQVLKWFEEWLKRMGADHVELRLHDMRVVGDKLDLDVEYRQYVGDKDIHDRRHLIIIKVNGRWYFKEVRIL,1.67
25,DQRERDQHIALEIWLLVLETGDERYVRRYADPRMRIEVGDKEIHGREDALEFRTEELRHMRLRDFRNKSFTVIDGRVDFYGHLLIEVDGRSQIFDSRLIILKVNGRWFLESEIRH,1.43

row,Sequence,protease stability score
1,DEHEEFLHRWAEQFLKNMITGDFDRLHELLDPHVRWRIGDKDSIGWKTIIDVVKDLLREIRIEDVTLHRIEVQGDKSIIVITTIVEIDGRRYRTTVIIRMRIIDGRLKSVDVEER,1.31
2,TEDEDYMHDATREFVTNVATGDEDRLRELMDPRTRHVYNGVRLHGRNLALEFWTHFRRELGVDHIEIRIRDLKFQGDYIHLHTEIVMDFNGVRIIYDTFVRVRKFNGQWMLQSSEIH,0.194
3,DEDEHFAENIIRILLHLIVTGDEDQLERLIDPHVKVTIGDKEFHGRLADEILREEIRIKRVHLRDFRIVNGRAESRFKLVGNWNGVETEFTKSVYIDKINGRWIITERHIT,1.16
4,SEIHDIARKMMNIVRRLLHTGDEDKWLDLADPDVRIHINGRDFIGRELWVQIYRELGVDHLDLKIERVEIVDGVIILHGTLDIHYGDKTHEIEINIFIRKVNGRWRLKLEHHK,1.71
5,NEEEKRMVEEHEKFWNFVRTGDEDTVRDLIDPHARVIQGNKILHGWEEAVRWMKEIRIHDIRIHSSHEVDGRVTITGDMDFEFNGKRHILEVRIFLLKIDGRWIHTFIQID,1.33
6,HEHTKMLLDMHRLWMELWLTGDEHELEKLLDPNVRIIIHVNGVDISIHGRETVRRVLRHEIKRYDHLEINLKRHSAYDGKVESDTEFRVIFDGKRIELDTRIKNIVINGRTKEWIFELE,0.619
7,SEHQEVFEEFVRRWIEDMETGNEEQLRHLADPDARIVINGREHHGREWVSTFLMKRIRHLGVKHVEIDDKKQIGEKIHVRVTIHFDGVTVDTELIALKINGRWFMHEVIFR,1.5
8,DTIERFVRHSFNLFVKQLETGDEHTLEKMADPHVRLEYGDKEYHGREEFKRQMHEIRFKRLELKRIEIQGEWAIMHGEDDGHFNGVDMKLESTEIAVKVNGRWYLKSFILK,1.41
9,DEEKEYAIRILREFTKYWETGDFERMKELFDPNARLEIGDKRAVGRDKVLEVLLRELHELRFKHFELREEDVIGEKKHSELIVHMEIDGVWHRRNIRVEIVVIDGKIHRMRFEQH,2.37
10,SELHEEIHKMVQEFLELFLTGDFHRIKQLMDPNVKLIYGDKLFHGRENVEKLHEELRWRYKNATIHVDLREITIFENRAVTDTSIEFDVNGKHISHETKVIIEKIDGQWVIKSIYIN,2.13
11,DEIEHESEEILRMWLHAIKTGDEEFLKQYIDPHAKLDINGVEFHGREHIVRFIVELRMHDHRVQDSRKVGNKVILHTRVDSIIGDKRIDTHVTIIVRKIDGKWRLEEYRVS,2.55
12,SEDHEMAKRIVKQFMEEIFTGDWRDFEELLDPDVRIIIGDKELHGREQFELELRHMRRSIDEMHFTDAKVVGDKMIFDTRMKITIHVNGKELRFTTKSTFFILKVDGVWRIRQITVL,2.13
13,DEVEENAIRIAEDMLNNVLTGDEHLLRQLLDPHVRFILIVGDKTYTWHGREDFLEWLRKRLKQIDHEHIIIRDIKVVGDKAHIDGELHINVNGRTEDTRVHWDILVINGRIHKIRIIIH,1.38
14,DELEEETREAIRLMFESVKTGDEDSIKHLADPHVRVLINGRDDHGMKILHHLFSRFKNLTIELKRVHVYGEKAEVHTNWHINGRYYHVIWILIKINGRWFIESIEIH,1.61
15,DESEELVRRFLEERIQDLRTGNWERIHENLDPNVRLIVNGRIFHGREALHVFRRRVDHNEDEKIRDVRIQGDKAEVDMEVLGVVNGVRTNFEAKLIMTKFDGKWSVKEVQID,1.75
16,SESEELAEHWFELLIRSILTGDEDTLRRLMDPDVKIQVGDKEWHGREEYIRMVLEFSHLYKNVKLHFRIRSVVDIDGRLTVDTEIINSFDGREYRIDTRLHVDKYDGVWVAKHLIYS,1.39
17,DEDTQRREEWHHQFIMSMRTGDERLLLELVDPNYRSDINGVELHGWEFAEKLMRDAGVKHYELKRVHHIGDKMIVDGVTTFNGKERRVIFIARKIDGRWLITSSHFE,1.31
18,SEVEEDIRKWLKEHTDSIRTGDEERMLRNMDPHVRVDIDGVEHHGWEHLEEFIHRLTKKIKNMRVDWHRVRFQGDKAEIDGELDIDGRVTHVHIHSIKVDGRWYIKEIYIT,1.24
19,EEEKEHAREIVDILWELHETGDEEIFRTLADPDVRLLIGDKKIVGREEIWRKLKEVHKHWRLKSYHTRHLHVQGEKVTIDGVINGVYDGVDTSIDVNIQIFTFNGRFRSMREHYS,0.317
20,EEERKEVKFAFDIWSELFLTGDEEDIHHLADPDVRLDINGKNIHGMELIHKIILHDILEWRLEVRVKHIEVQGDKAEIQMELKFRYNGREKHYKFRIIYKKFDGQWRYESIHMR,1.71
21,DEERQESEEALRHSMELWATGDFESLSRNVDPNVRVEIGDKTFHGWEIAHELFHKIKNLTVHLEDHEIQGEKVTIHGVLNFNGKREHVRLYSKKVNGRWILEKVQVG,2.17
22,DEDEDEIKRIVEIIEHALRTGDEDLMRRLFDPNARLDINGREVHGRESFIEILHHWLHELRFKSLRLHQVHIVDGKAHVDTRVTYHINGVEIHIETERNMLKVDGRWFITHEHHR,0.025
23,DKEEELMKTFSQLFEHWVETGDETEMLQNADPHAKSRFNGREIHGREDIVELLKRIIDQADHHEVHTDKVKVVGDKIHINSSFHIHIGEFTIRLHYELIVDKINGRWILKEVRLG,0.927
24,SEEEKIFEMAIKLMRHTLQTGDESTLHRLLDPHVRVVIGDKTYVGREATEFLLTRIDHIHDVEIHEVELINGRVNMHGIVDGTIGDKRVHVESNWVASKYDGRWHLKSISFH,1.29
25,DEEDRDAEFFMRLWMRLHKTGDEDQLRELLDPDVRVRFENREFHGREELIKFIHRHRREARTDVKIRDFRVQGDKVIVHGELILQFDGVRFNHDLILITRKIDGRWRIEEIEVR,1.84
